The source of these data is patent publication US20210388102A1 (IMMUNOGEN, published 2021).

The target in assay [1] is T1, human ADAM9 (huADAM9) on cells (human, UniProt Q13443 206-819).
T1 construct: The pro-domain is said to be cleaved (Arg-205/Ala-206) in the mature protein; also called Cho-K/huADAM9; Cho-K/hu ADAM9.2
T1 sequence: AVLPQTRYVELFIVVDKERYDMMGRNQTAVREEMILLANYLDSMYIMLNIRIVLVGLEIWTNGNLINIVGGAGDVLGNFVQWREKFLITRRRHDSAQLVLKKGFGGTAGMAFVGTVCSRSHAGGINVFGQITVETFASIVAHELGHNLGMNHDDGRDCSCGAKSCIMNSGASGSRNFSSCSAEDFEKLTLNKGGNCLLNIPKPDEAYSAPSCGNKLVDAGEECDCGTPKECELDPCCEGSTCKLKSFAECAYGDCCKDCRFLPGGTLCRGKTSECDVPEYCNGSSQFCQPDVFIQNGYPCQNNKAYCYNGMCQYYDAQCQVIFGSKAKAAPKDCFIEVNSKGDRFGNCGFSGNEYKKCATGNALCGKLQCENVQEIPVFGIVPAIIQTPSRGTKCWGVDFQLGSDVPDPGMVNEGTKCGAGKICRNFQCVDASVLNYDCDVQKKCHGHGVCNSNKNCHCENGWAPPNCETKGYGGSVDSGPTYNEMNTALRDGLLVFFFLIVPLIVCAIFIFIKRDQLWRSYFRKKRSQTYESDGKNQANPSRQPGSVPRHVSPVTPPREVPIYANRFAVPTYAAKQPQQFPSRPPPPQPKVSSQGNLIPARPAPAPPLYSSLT
Kind of assay: FACS, 300-19 cells expressing human ADAM9. Background: In flow cytometry, cells or beads pass a laser one at a time.

For assay [2], the target named is T2, cynomolgus monkey ADAM9 (cynoADAM9) on cells (cynomolgus monkey, UniProt Q13443 206-819 (human entry)).
T2 construct: also called Cho-K/cynoADAM9 clone 2; Cho-K/cynoADAM9 clone #16
T2 chain: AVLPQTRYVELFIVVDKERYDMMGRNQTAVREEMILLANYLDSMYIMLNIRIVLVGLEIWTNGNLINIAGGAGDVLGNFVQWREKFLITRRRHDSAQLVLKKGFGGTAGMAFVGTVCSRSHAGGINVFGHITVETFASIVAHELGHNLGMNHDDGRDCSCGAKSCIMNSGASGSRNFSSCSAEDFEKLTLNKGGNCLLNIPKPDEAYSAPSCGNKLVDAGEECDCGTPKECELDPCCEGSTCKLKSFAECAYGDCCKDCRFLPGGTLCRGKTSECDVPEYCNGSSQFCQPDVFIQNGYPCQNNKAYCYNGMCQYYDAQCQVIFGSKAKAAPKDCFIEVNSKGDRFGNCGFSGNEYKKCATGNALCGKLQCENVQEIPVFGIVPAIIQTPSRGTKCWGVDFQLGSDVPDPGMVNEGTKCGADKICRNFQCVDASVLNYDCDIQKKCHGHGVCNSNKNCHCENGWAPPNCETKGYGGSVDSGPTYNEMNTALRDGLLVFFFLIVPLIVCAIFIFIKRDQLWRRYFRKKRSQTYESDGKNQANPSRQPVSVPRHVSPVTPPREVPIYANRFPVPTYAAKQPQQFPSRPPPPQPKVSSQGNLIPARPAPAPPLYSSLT
Briefly: FACS, 300-19 cells expressing cynomolgus ADAM9.

The target in assay [3] is T3, His-tagged soluble human ADAM9 (shADAM9-His) (human, UniProt Q13443 206-697).
T3 construct: Contains an extracellular portion of human ADAM9; also called huADAM9-His; His peptide-tagged soluble huADAM9
T3 sequence: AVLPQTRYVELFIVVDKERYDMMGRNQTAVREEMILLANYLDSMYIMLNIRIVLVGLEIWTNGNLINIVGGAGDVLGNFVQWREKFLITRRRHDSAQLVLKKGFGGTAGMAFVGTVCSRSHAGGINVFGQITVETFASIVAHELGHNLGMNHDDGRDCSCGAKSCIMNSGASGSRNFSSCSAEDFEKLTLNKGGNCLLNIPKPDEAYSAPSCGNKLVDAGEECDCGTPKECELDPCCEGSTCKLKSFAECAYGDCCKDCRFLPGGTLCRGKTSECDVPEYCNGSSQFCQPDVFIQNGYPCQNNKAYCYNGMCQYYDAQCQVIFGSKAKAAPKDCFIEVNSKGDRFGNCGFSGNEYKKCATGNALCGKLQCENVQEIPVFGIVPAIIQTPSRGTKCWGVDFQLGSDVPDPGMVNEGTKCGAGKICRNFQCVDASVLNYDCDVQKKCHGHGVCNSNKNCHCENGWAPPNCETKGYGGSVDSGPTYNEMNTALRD
Kind of assay: SPR (BIACORE), antibody captured, huADAM9-His in flow.

For assay [4], the target named is T2, cynomolgus monkey ADAM9 (cynoADAM9) on …. Kind of assay: FACS, EC50 on 300-19 cynoADAM9 cells over EC50 on 300-19 huADAM9 cells.
In assay [5] the target is T4, huFcRn (human, UniProt P55899 24-297; P61769 21-119, limits assumed).
T4 construct: source and construct are not described; also called human FcRn
Briefly: SPR at pH 6.0: 250 nM and 1000 nM huFcRn passed over captured antibody.

Assay [6] has as its target T3, His-tagged soluble human ADAM9 …. Briefly: ELISA: His-tagged soluble huADAM9 (0.5 µg/mL) captured by plate-coated anti-His antibody; serial dilutions of antibody about 0.2-500 ng/mL; abs @450nm.
The target of another assay is T5, cyno FcRn (cynomolgus monkey, UniProt Q8SPV9 24-297; Q8SPW0 21-119, limits assumed).
T5 construct: source and construct are not described
Kind of assay: FcRn binding, method not described.

The target of assay [7] is T4, huFcRn. Kind of assay: SPR at pH 6.0: 25 nM and 100 nM antibody passed over immobilized FcRn (species of the FcRn not named in the legend); bivalent analyte.
For assay [8], the target named is T3, His-tagged soluble human ADAM9 …. Kind of assay: SPR (BIACORE), antibody captured on anti-human Fc, shADAM9-His 6.25-100 nM, 1:1 Langmuir. (In general: Surface plasmon resonance follows binding to a sensor surface in real time, without labels.)
The target in assay [9] is T2, cynomolgus monkey ADAM9 (cynoADAM9) on …. Kind of assay: FACS, 300-19 cells expressing cynomolgus ADAM9; FACS, 300-19 cells expressing cynoADAM9, dilution series, 4° C.
Assay [10] shares this target. Kind of assay: FACS, EC50 on 300-19 cynoADAM9 cells over EC50 on 300-19 huADAM9 cells; Unitless ratio of cyno EC50 to human EC50 by FACS on 300-19 cells.

One may read the EC50 as the concentration at which the effect is half-maximal. Broadly, the koff is the first-order rate constant of dissociation. What is called kon is the second-order rate constant of association. Usually EC50 (read off the curve) stands for the concentration giving half of the maximal effect.

T4 sequence (P55899 24-297 limits assumed, chain 1 of 2): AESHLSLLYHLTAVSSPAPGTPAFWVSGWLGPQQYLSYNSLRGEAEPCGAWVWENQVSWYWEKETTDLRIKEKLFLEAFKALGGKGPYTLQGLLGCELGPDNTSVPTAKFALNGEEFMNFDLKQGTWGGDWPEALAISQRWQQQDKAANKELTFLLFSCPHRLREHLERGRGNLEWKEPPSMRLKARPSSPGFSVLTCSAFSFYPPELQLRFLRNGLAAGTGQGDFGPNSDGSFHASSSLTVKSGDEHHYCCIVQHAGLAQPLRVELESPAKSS
T4 sequence (P61769 21-119 limits assumed, chain 2 of 2): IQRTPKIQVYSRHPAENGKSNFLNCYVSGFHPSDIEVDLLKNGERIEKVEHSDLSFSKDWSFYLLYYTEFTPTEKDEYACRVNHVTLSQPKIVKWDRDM
T5 sequence (Q8SPV9 24-297 limits assumed, chain 1 of 2): as the sequence (P55899 24-297 limits assumed, chain 1 of 2) above, with N39D, E44Q, G99S, S189G, S190N, L217M, S269T counted along it
T5 sequence (Q8SPW0 21-119 limits assumed, chain 2 of 2): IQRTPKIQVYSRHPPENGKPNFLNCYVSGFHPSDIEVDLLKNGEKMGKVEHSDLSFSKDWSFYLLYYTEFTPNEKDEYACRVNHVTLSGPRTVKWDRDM

B1: hMAB-A (2I.2) (antibody, human IgG1, kappa)
heavy: not shown
light: DIVMTQSPDSLAVSLGERATISCKASQSVDYSGDSYMNWYQQKPGQPPKLLIYAASDLESGIPARFSGSGSGTDFTLTISSLEPEDFATYYCQQSHEDPFTFGQGTKLEIKRTVAAPSVFIFPPSDEQLKSGTASVVCLLNNFYPREAKVQWKVDNALQSGNSQESVTEQDSKDSTYSLSSTLTLSKADYEKHKVYACEVTHQGLSSPVTKSFNRGEC
notes: Kappa light chain, wild-type IgG1 heavy chain constant regions; also called MAB-A VH(2I); MAB-A VH(2I.2)
Molecule B1 had an EC50 in assay [1] of 1.49 nM. This molecule also yielded a concentration for a half-maximal effect (EC50) in assay [2] of 4.1 nM. Besides, in [3], the Kd is 0.4 nM, the off-rate constant (koff) came out at 0.00023 s⁻¹ and the on-rate (kon) was found to be 660000 M⁻¹ s⁻¹. The “cyno/human (ratio of EC50)” value in assay [4] was 3. For the same molecule, the Kd with huFcRn [5] was 3400 nM. For the same molecule, the concentration for a half-maximal effect (EC50 (read off the curve)) in assay [6] is approximately 9 ng/mL.

B2: hMAB-A(2I.2)-YTE (antibody, human IgG1, kappa)
heavy: EVQLVESGGGLVKPGGSLRLSCAASGFTFSSYWMHWVRQAPGKGLEWVGEIIPIFGHTNYNEKFKSRFTISLDNSKNTLYLQMGSLRAEDTAVYYCARGGYYYYPRQGFLDYWGQGTTVTVSSASTKGPSVFPLAPSSKSTSGGTAALGCLVKDYFPEPVTVSWNSGALTSGVHTFPAVLQSSGLYSLSSVVTVPSSSLGTQTYICNVNHKPSNTKVDKRVEPKSCDKTHTCPPCPAPELLGGPSVFLFPPKPKDTLYITREPEVTCVVVDVSHEDPEVKFNWYVDGVEVHNAKTKPREEQYNSTYRVVSVLTVLHQDWLNGKEYKCKVSNKALPAPIEKTISKAKGQPREPQVYTLPPSREEMTKNQVSLTCLVKGFYPSDIAVEWESNGQPENNYKTTPPVLDSDGSFFLYSKLTVDKSRWQQGNVFSCSVMHEALHNHYTQKSLSLSPGK
light: DIVMTQSPDSLAVSLGERATISCKASQSVDYSGDSYMNWYQQKPGQPPKLLIYAASDLESGIPARFSGSGSGTDFTLTISSLEPEDFATYYCQQSHEDPFTFGQGTKLEIKRTVAAPSVFIFPPSDEQLKSGTASVVCLLNNFYPREAKVQWKVDNALQSGNSQESVTEQDSKDSTYSLSSTLTLSKADYEKHKVYACEVTHQGLSSPVTKSFNRGEC
notes: Last residue X is lysine or absent; also called hMAB-A(2I.2) with the YTE mutation (M252Y, S254T, T256E)
Consider B2, for which the binding result with cyno FcRn was “binds”. Also, the Kd in the assay with huFcRn [5] came out at 730 nM; in the assay with huFcRn [7], 7.2 nM.

B3: hMAB-A (2.2) (antibody, human IgG1, kappa, V domains shown)
VH: EVQLVESGGGLVKPGGSLRLSCAASGFTFSSYWMHWVRQAPGKGLEWVGEIIPIFGHTNYNEKFKSRFTISLDNSKNTLYLQMGSLRAEDTAVYYCARGGYYYYGSRDYFDYWGQGTTVTVSS
VL: DIVMTQSPDSLAVSLGERATISCKASQSVDYSGDSYMNWYQQKPGQPPKLLIYAASDLESGIPARFSGSGSGTDFTLTISSLEPEDFATYYCQQSHEDPFTFGQGTKLEIKR
notes: IgG1 kappa; also called huMAB-A(2.2); parental hMAB-A (2.2)
Regarding B3, the concentration giving a half-maximal response (EC50) in assay [1] amounted to 0.69 nM. Moreover, in [3], the Kd turned out to be 0.6 nM, the koff was 0.00055 s⁻¹ and the kon turned out to be 900000 M⁻¹ s⁻¹. The molecule also had a Kd in assay [8] of 1.4 nM. The midpoint of the response in assay [9], the EC50, lay at 32.7 nM. Also, the “cyno/human (ratio of EC50)” value in [10] stood at 47.

B4: hMAB-A(2I.2)-S442C (antibody)
heavy: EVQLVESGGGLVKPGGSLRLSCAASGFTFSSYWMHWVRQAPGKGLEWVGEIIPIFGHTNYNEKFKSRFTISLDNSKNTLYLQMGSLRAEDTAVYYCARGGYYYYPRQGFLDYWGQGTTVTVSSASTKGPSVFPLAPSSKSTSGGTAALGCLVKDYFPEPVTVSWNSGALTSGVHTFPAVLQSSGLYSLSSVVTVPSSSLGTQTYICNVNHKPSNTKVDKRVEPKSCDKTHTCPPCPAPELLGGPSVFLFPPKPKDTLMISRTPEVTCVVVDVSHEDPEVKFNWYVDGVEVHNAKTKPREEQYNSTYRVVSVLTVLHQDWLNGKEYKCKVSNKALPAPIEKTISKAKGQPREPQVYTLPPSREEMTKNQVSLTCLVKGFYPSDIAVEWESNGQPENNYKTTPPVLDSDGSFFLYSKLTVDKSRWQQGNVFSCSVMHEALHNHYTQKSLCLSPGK
light: DIVMTQSPDSLAVSLGERATISCKASQSVDYSGDSYMNWYQQKPGQPPKLLIYAASDLESGIPARFSGSGSGTDFTLTISSLEPEDFATYYCQQSHEDPFTFGQGTKLEIKRTVAAPSVFIFPPSDEQLKSGTASVVCLLNNFYPREAKVQWKVDNALQSGNSQESVTEQDSKDSTYSLSSTLTLSKADYEKHKVYACEVTHQGLSSPVTKSFNRGEC
notes: IgG1 kappa with engineered Cys S442C (EU index); also called hMAB-A (2I.2)(C)
As for B4, the EC50 in assay [1] was 1.33 nM; in assay [2], 3.8 nM. The “cyno/human (ratio of EC50)” value in [4] was 3. Moreover, the half-maximal effective concentration (EC50 (read off the curve)) in assay [6] is approximately 9 ng/mL.
